The results in this text go back to patent US20150104450A1.

Assay [1] concerns the target cynomolgus monkey CD86 extracellular domain with FLAG 10xhis tag (cynomolgus monkey). Nature of the assay: SPR (Biacore 2000), ratio of KD. For orientation: Surface plasmon resonance follows binding to a sensor surface in real time, without labels.
Assay [2] deals with human CD86 extracellular domain with FLAG 10xhis tag (human). Put plainly: SPR (Biacore 2000), ratio of KD.
The target in assay [3] is cynomolgus monkey CD86 extracellular domain with FLAG 10xhis tag (cynomolgus monkey). Nature of the assay: SPR (Biacore 2000), CTLA-4-Fc amine-coupled to CM5, ligand ECD as analyte, monovalent affinity.
Sequence of cynomolgus monkey CD86 extracellular domain with FLAG 10xhis tag (cynomolgus monkey) (chain, as listed by the source limits assumed, form in doubt): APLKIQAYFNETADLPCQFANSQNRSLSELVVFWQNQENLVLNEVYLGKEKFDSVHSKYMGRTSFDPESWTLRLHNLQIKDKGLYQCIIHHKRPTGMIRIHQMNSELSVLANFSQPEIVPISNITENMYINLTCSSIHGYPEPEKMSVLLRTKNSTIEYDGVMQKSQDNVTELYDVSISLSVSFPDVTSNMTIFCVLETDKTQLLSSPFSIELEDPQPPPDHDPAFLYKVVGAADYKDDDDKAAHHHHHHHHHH
Assay [4] has as its target human CD86 extracellular domain with FLAG 10xhis tag (human). Described as above.

Broadly, the Kd is the concentration at which binding is half-saturated.

Sequence of human CD86 extracellular domain with FLAG 10xhis tag (human) (chain, as listed by the source limits assumed, form in doubt): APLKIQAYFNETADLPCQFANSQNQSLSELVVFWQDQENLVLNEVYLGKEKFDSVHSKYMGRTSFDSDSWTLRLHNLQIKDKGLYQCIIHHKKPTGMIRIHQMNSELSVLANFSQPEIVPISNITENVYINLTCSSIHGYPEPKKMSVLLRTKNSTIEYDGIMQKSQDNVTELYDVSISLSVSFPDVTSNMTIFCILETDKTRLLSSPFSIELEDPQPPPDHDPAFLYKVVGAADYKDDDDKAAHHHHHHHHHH

With “wild type CTLA-4 (SEQ ID NO: 35) in Fc fusion format”, the fold-improvement in affinity over wild type CTLA-4 in Fc fusion format in assay [1] and in assay [2] was 1 fold throughout. The Kd in assay [3] was determined as 6.53 µM; in assay [4], 6.42 µM.
